Columns and labels:
PYL6-nLUC = target: T1, PYL6-nLUC (Arabidopsis thaliana, UniProt Q8S8E3 1-215); experiment: firefly luciferase complementation in protoplasts (weaker group)
T1 construct: LUC complementation assay in protoplasts; also called PYLs-nLUC; not shown: N-terminal domain of firefly luciferase
T1 sequence: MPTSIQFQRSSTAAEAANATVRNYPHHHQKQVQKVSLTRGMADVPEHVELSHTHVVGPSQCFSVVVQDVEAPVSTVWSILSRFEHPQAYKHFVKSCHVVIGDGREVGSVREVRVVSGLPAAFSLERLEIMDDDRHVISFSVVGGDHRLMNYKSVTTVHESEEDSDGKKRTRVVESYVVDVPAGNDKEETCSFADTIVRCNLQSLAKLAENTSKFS
Protocol: (§1) To further characterize the interactions between PYL13 and PYLs in vivo, their interactions in protoplasts were examined by the firefly luciferase (LUC) complementation assay. PYL13 was fused to the C-terminal domain of LUC (PYL13-cLUC), and PYLs were fused to the N-terminal domain of LUC (PYLs-nLUC), and co-expressed in protoplasts. After transfection, protoplasts were incubated overnight under light at room temperature, and the LUC activities in living protoplasts were measured. Error bars indicate s.e.m. (n=6). […] PYL13 binds more strongly to PYR1, PYL1-5, PYL7, and PYL10-11 than to PYL6, PYL8-9, or PYL13 (FIG. 5B).

PYL8-nLUC = target: T2, PYL8-nLUC (Arabidopsis thaliana, UniProt Q9FGM1 1-188); experiment: as above
T2 construct: LUC complementation assay in protoplasts; also called PYLs-nLUC; not shown: N-terminal domain of firefly luciferase
T2 sequence: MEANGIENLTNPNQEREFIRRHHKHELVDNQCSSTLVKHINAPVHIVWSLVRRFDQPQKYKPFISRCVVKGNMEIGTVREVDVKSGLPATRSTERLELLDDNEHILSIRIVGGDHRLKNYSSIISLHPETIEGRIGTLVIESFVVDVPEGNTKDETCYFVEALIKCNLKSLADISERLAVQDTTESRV
Protocol: as §1

PYL7-nLUC = target: T3, PYL7-nLUC (Arabidopsis thaliana, UniProt Q1ECF1 1-211); experiment: firefly luciferase complementation in protoplasts (stronger group)
T3 construct: LUC complementation assay in protoplasts; also called PYLs-nLUC; not shown: N-terminal domain of firefly luciferase
T3 sequence: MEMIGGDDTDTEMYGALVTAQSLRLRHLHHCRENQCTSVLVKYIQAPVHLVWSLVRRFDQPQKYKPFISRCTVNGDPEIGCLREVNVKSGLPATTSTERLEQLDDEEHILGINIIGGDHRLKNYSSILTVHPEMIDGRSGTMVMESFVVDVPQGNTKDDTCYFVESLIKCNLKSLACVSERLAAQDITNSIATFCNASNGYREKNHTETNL
Protocol: as §1

PYL5-nLUC = target: T4, PYL5-nLUC (Arabidopsis thaliana, UniProt Q9FLB1 1-203); experiment: as above
T4 construct: LUC complementation assay in protoplasts; also called PYLs-nLUC; not shown: N-terminal domain of firefly luciferase
T4 sequence: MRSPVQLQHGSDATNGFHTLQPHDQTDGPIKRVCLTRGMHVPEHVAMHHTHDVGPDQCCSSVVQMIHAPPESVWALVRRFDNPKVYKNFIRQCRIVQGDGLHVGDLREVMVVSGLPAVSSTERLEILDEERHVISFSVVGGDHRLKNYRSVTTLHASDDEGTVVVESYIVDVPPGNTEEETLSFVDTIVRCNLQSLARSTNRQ
Protocol: as §1

PYL4-nLUC = target: T5, PYL4-nLUC (Arabidopsis thaliana, UniProt O80920 1-207); experiment: as above
T5 construct: LUC complementation assay in protoplasts; also called PYLs-nLUC; not shown: N-terminal domain of firefly luciferase
T5 sequence: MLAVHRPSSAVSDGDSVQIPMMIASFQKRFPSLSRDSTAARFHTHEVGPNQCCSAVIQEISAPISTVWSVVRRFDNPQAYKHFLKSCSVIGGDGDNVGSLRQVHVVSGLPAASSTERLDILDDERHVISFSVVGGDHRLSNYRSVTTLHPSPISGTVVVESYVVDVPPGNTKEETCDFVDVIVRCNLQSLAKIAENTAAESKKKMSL
Protocol: as §1

PYL3-nLUC = target: T6, PYL3-nLUC (Arabidopsis thaliana, UniProt Q9SSM7 1-209); experiment: as above
T6 construct: LUC complementation assay in protoplasts; also called PYLs-nLUC; not shown: N-terminal domain of firefly luciferase
T6 sequence: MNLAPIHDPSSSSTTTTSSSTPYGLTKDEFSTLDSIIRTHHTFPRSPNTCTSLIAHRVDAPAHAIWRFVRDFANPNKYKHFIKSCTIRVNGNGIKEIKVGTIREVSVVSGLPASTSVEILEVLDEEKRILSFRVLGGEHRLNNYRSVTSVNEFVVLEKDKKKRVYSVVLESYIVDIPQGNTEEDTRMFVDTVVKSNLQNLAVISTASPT
Protocol: as §1

PYR1-nLUC = target: T7, PYR1-nLUC (Arabidopsis thaliana, UniProt O49686 1-191); experiment: as above
T7 construct: LUC complementation assay in protoplasts; also called PYLs-nLUC; not shown: N-terminal domain of firefly luciferase
T7 sequence: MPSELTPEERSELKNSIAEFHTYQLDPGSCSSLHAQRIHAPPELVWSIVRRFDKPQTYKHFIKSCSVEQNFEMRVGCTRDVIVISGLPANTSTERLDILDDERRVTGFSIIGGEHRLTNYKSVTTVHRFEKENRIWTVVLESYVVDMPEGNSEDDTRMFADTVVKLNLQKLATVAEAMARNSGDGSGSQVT
Protocol: as §1

PYL10-nLUC = target: T8, PYL10-nLUC (Arabidopsis thaliana, UniProt Q8H1R0 1-183); experiment: as above
T8 construct: LUC complementation assay in protoplasts; also called PYLs-nLUC; not shown: N-terminal domain of firefly luciferase
T8 sequence: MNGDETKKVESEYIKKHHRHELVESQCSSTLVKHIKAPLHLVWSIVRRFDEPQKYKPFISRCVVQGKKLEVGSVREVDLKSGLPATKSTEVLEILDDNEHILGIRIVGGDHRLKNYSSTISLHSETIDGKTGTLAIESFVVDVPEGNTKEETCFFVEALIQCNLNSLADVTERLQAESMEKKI
Protocol: as §1

PYL13-nLUC = target: T9, PYL13-nLUC (Arabidopsis thaliana, UniProt Q9SN51 1-164); experiment: firefly luciferase complementation in protoplasts (weaker group; PYL13 with itself)
T9 construct: LUC complementation assay in protoplasts; also called PYL13 fused to the N-terminal domain of LUC; not shown: N-terminal domain of firefly luciferase
T9 sequence: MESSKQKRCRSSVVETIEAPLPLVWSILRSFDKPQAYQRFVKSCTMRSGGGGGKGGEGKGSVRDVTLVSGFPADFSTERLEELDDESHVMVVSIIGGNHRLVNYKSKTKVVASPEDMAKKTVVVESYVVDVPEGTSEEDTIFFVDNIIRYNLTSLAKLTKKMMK
Protocol: as §1

[1] = target: T10, HAI2 fused to the GAL4-activating domain (AD) (Arabidopsis, UniProt Q9LNW3 1-442); experiment: yeast two-hybrid, growth on media lacking His and His/Ade, with and without ABA (ABA-independent)
T10 construct: Yeast two-hybrid construct
T10 sequence (looked up): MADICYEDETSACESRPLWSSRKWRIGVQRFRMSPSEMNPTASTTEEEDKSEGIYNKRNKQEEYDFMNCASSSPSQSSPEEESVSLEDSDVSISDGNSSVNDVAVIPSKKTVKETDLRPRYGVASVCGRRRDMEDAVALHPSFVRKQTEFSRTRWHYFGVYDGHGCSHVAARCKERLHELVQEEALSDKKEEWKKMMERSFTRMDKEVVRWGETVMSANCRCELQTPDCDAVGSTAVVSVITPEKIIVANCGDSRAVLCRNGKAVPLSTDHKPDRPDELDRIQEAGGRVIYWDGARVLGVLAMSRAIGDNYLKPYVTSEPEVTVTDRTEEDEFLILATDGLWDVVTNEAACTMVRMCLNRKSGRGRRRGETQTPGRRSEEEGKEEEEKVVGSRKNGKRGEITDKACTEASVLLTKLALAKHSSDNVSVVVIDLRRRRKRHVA
Protocol: To investigate how PYL13 may function in plants, the interaction between PYL13 and clade A PP2Cs in yeast two-hybrid assays was examined, as shown in FIG. 3. […] PYL13 binds strongly with ABI1, ABI2, PP2CA, and HAI2 but weakly with HAB1 and HAI1 (FIG. 3A). […] PYL13 fused to the GAL4-DNA-binding domain (BD) was used as […]. Interaction was determined by growth assay on media lacking His and His/Ade in the presence and absence of ABA. Dilutions (10⁻¹, 10⁻², and 10⁻³) of saturated cultures were spotted onto the plates, which were photographed after 5 days.

Measured: binding result

B1: PYL13-cLUC (other)
chain: MESSKQKRCRSSVVETIEAPLPLVWSILRSFDKPQAYQRFVKSCTMRSGGGGGKGGEGKGSVRDVTLVSGFPADFSTERLEELDDESHVMVVSIIGGNHRLVNYKSKTKVVASPEDMAKKTVVVESYVVDVPEGTSEEDTIFFVDNIIRYNLTSLAKLTKKMMK
notes: LUC complementation assay in protoplasts; also called PYL13 fused to the C-terminal domain of LUC; not shown: C-terminal domain of firefly luciferase
not listed: [1]
binds: all other assays above

B2: PYL13 fused to the GAL4-DNA-binding domain (BD) (other, not shown: small tags and cut ends)
chain: MESSKQKRCRSSVVETIEAPLPLVWSILRSFDKPQAYQRFVKSCTMRSGGGGGKGGEGKGSVRDVTLVSGFPADFSTERLEELDDESHVMVVSIIGGNHRLVNYKSKTKVVASPEDMAKKTVVVESYVVDVPEGTSEEDTIFFVDNIIRYNLTSLAKLTKKMMK
notes: also called BD-PYL13
binds: [1]
